Assay: yeast display, Sf9 membrane polyspecificity reagent, FACS + sequencing; frameworks hold sequencing errors
In short: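 In a synthetic yeast display library (Saccharomyces cerevisiae BJ5465), nanobody expression was induced with galactose for 36–48 hours. FACS gates were set low and high (top ~1%) using anti-HA fluorescence for expression and streptavidin fluorescence for binding of the Sf9 membrane reagent. Each polyreactivity label is drawn from the gate of origin.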

## QVQLVESGGGLVQAGGSLRLSCAASGRIFAYYAMGWYRQAPGKERELVAAINRSGVRTYYADSVKGRFTISRDNAKNTVYLQMNSLKPEDTAVYYCAAPGQHSWGQGTQVTVSS
  polyreactivity (PSR sort gate): high polyreactivity

## QVQLVESGGGLVQAGGSLRLSCAASGFIFYSNAMGWYSQAPGKVRELVAAISRGGGSTYYADSVKGRFTISRDNAKNTVYLQMNSLKPEDTAVYYCAKRRLSPQDDYWGQGTQVTLSS
  polyreactivity (PSR sort gate): high polyreactivity

## QVQLQESGGGLVQAGGSLRLSSAASGSIFKVVDMGLYRQAPAKEREFVATIGEGGNTYYADSVKGRFTMSRDNAKNTVYLQKNSLKPEDTALYFYAVVLGTSYRYTYWGQGTQVTVSS
  polyreactivity (PSR sort gate): low polyreactivity

## QVQLVESGGGLVQAGGSLRLSCAASGLIFYGNAMGWYRQSPGKDRELVAAISRRGGRTYYADSVKGRFTISRDNAENTVYLQMNSLKPEDTAVYYCSAQYSYPYYKVTLYYWGQGTQVTVSS
  polyreactivity (PSR sort gate): high polyreactivity

## QVQLVESGGGLVQAGGSLRLSCAASGLTFVYYAMGWYRQAPGKEMELVAAITSGGTTHYADSVKGRFTISRDNAKNTVYLQMNSLKPEDTAVYYCAATLGRWKRTYGYWGQGTQVTVSS
  polyreactivity (PSR sort gate): high polyreactivity

## QVQLVESAGGLVQAGGSLRLSCAASGGIFGINAMGWYRQAPGKERELVAAINLSGGRTYYADSVKGRFTISRDNAKNTVYLQMNSLKPEDTAVYYCAAFYGYSLYGHYEYWGQGTQVTVSS
  polyreactivity (PSR sort gate): high polyreactivity

## QVQLVESGGGLVQAGGSLRLSCAASGGTFLAYAMGWYRQAPGKERELVAAITRRGTRTYYADSVKGRFTISRDNAKNTVYLQMNSLKPEDTAVYYCAVSGGFYWGQGTQVTVSS
  polyreactivity (PSR sort gate): high polyreactivity

## QVQLVESGGGLVQAGGSLRLSCAASGSIFGVYAMGRYIQAPRKERELVASISRGGSTNYADSVKGRFTISRDNAKNTVYLQMKSLKPEDTAVYYCASDGVYQGWTWLYGLRYNYWGQGTQVTVSS
  polyreactivity (PSR sort gate): low polyreactivity

## QVQLVESGGGLVQAGGSLRLSCAASGRTFYYYAMGWYRQAPGKERELVAAITGSGANTYYADSVKGRFTISRDNAKNTVYLQMKSLKPEDTAVYYCNKYRTLRNGWGSGYYYWGQGTQVTVSS
  polyreactivity (PSR sort gate): high polyreactivity

## QVHLVESGGGLVQAGGSLRLSCAASGSTFAYNAMGWYRTAPGKERELVAAISSSGGRTYYADSVKGRFTLSRDNAKNTVYLQMISLKPEDTAVYYCNAAYYYTYGYWGQGTEVTVSS
  polyreactivity (PSR sort gate): high polyreactivity

## QVQLVESGGGLVQAGGSLRLSCAASGFTFYPNTMGWYRQAPGKERELVAAISSSGGRTYYADSVKGRFTISRDNAKNTVYLQMNSLKPEDTAVYYCNAAKWLTSGGLDYWGLGTQVTVSS
  polyreactivity (PSR sort gate): high polyreactivity

## QVQLVESGGGLVQAGGSLRLSCAASGLIFPRYAMGWYRQAPGKERELVAAITRGGSTYYADSVKGRFTISRDNAKNTVYLQMNSLKPEATAVYDCNAELPVHCSWYDYWGQGTQVTVSS
  polyreactivity (PSR sort gate): low polyreactivity

## QVQLVESGGGLVQAGGSLRLSCAASGRTFDTNAMGWYRQAPGKERELVAGITIGGSTNYADSVKGRFTISRDNAKNTVYLQMNILKPEDTAVYYCAADYGSVRGYAADYYEPEYDYWGQGTQVTVSS
  polyreactivity (PSR sort gate): low polyreactivity

## QVQLVESGGGLVQAGGSLRLSCAASGYIIFGNAMGWYRQAPGKERELVAAIRWRGTSTYYADSVKGRFTISRDNAKNTVYLQMNSLKPEDTAVYYCAADVVRSNFYGTFLYDYDYWGQGTQVTVSS
  polyreactivity (PSR sort gate): low polyreactivity

## QVQLVESGGGLVQAGGSLRLSCAASGSILEVYAMGWYRQAPGKERELVAAISDGDSTYYADSVKGRFTISRDNAKNTVYLQMNSLKPEDTAVYYCAAEFVGTLWWYDDWGQGTQVTVSS
  polyreactivity (PSR sort gate): low polyreactivity

## QVQLVESVGGLVQAGGSLRLSCDASGSTFPKYAMGRSRQAPAKEIELVAGISWRGGSTYYADSVKGRFTISRDNAKNTVYLQMNSLKPEDTAVYYCNKYLYYSFQDDYWGQGTQVTVSS
  polyreactivity (PSR sort gate): high polyreactivity

## QVQLVESGGGLVQAGGSLRLSCAASGSTFDNYAMGWYRQAPGKERELVAAINSRGGRTYYADSVKGRFTISRDNAKNTVYLQMNSLKPDDTAVYYCAAVGATHRFDYWGQGTQVTVSS
  polyreactivity (PSR sort gate): high polyreactivity

## QVQLVESGGCLVQGGGSLRLTWAASGRTFPYNNMRRYRQAPGKERELVASITYTDGSTSYADCVKGRFTISRDNAKNTVYLQMNSLKPQDTADYYCAAVYYAHQDYRFDYWGQGTQVTVSS
  polyreactivity (PSR sort gate): low polyreactivity

## QVQLVESGGGLVQAGGSLRLSCAASGIIFYFYAMGWYRQAPGKERELVADITSGDRTNYADSVKGRFTISRDNAKNTVYLQMNSLKPEDTAVYYCAAGTSKPTPIYGYWGQGTQVTVSS
  polyreactivity (PSR sort gate): low polyreactivity

## QVQLVESGGGLVQAGGSLRLSCAASGSIFRGYSMGWYRQAPGKERELVAAINTSGGRTYYADSVKGRFTISRDNAKNTVYLQMNSLKPEDTAVFYCATEYYQAKREDYWGQGTQVTVSS
  polyreactivity (PSR sort gate): high polyreactivity

## QVQLVESGGGKVKAGGSLRISCAASGRTYRYAMGWYRQAPGKERELVAAITSGGRTNYADSVKGRFTISRDNAKNTVYLQMNSLKPEDTAVYYCAAQWYTVITSWYGYWGQGTQVTVSS
  polyreactivity (PSR sort gate): low polyreactivity

## QVKLVDSGGGLVQAGGSLRISCGASGRTFYGYDMGWYRQAPGKERELVAAINWRGVRTYYADSVKGRFTISRDNAKNTDYLEMNCLKPEDTAVYYCGVYNHWVYGNDYWGQGTQVTVSS
  polyreactivity (PSR sort gate): high polyreactivity

## QVQLVESGGGLVQAGGSLRLSCAASGSTFAGNAMGWYRQAHGKERELVAALDSSTGSTYYAYSVKGRFTISRDNAKNTVYLQMNSVKPEDTAVYYWNKTSFLVKLDYWGQGTQVTVSS
  polyreactivity (PSR sort gate): low polyreactivity

## QVQLVESGGGLVQAGGSLRLSCAASGRTFYYYAMGWYRQAPGKERELVAGINSGGSTNYADSVKGRFTISRDNAKNTVYLQMNSLKPEDTAVYYCAVEDLVSEGWGWYKEMDYWGQGTQVTVSS
  polyreactivity (PSR sort gate): low polyreactivity

## QVQLVESGGGLDQAGGSLRLSCAASGRTFYRNVMGWYRQAHGKERELVAAISSRGGSTYYADSVKGRFTISRDNAKNTVYLQMNSLKPEDTAVYYCAAYYYRRRYGGKYDYWGQGTQVTVSS
  polyreactivity (PSR sort gate): high polyreactivity

## QVQLVESGGGLVQAGGSLRLICAASGVNAMGWYRQAPGKEREFVAAITSIGGSTYYADSVKGRFTISRDNAKNSVYLQMNSLKPEDTAVYYCNTDRGPVKVSPLYESWGQGTQVTVSS
  polyreactivity (PSR sort gate): low polyreactivity

## QVQLVDSGGGLVQAGGSLRLSCAASGRTIYNYDMGWYRQAPGKERELVARIFSGGSTNYADSVKGRFTISRDNAKNTVYLQMNSLKPEDTAVYYCNAVLESQFIGWKFFYWGQGTQVSVSS
  polyreactivity (PSR sort gate): high polyreactivity

## QVQLVESGGGLVQAGGSLRLSCAASGRTFEYYAMGWYRPAPGKERELVAAITWSVGSTYYADSVKGRFTISRDNAKNTVYLQMNSLKPEDTAGYYCAVDVVYTWPFPVEYYYWGQGTQVTVSS
  polyreactivity (PSR sort gate): high polyreactivity

## QVQLVESGGGLVQEGGSLRLSCAASGSTFRHNAMGRYRQAPGKERELVAVITDGASTNYADSVKGRFTISRDNAKNTVYLQMNSLKPEDTAVYYCAAYHRGYYTGREYYYWGQGTQVTVSS
  polyreactivity (PSR sort gate): low polyreactivity

## QVQLVESGGGLVQAGGSLRLSCAASGSTLWLYAMGWYRQAHGKERELVAVISNSGSTYYAESVKGRFTISRDNAKNTVYLQMNSLKPEDTAVYSCNKDGGGDSYWYDYWGQGTQVTVSS
  polyreactivity (PSR sort gate): low polyreactivity

## QVHLVESGGGLVQAGGSLRLSCAASGSNFRSYAMGWYRQAPWKERELDAAISSSGGRTYYADSVKGRFTISRDNAKNTVYLQMNSVKPEDNAVYYCAAYRGGGYKYDYWGQGTQVTVSS
  polyreactivity (PSR sort gate): high polyreactivity

## QVQLVESGGGLVQAGGSLRLICAASGSTFSENTMGSYRPAPGKERELVAAISFSGASTYYADSVKGRFTISRDYAKKTVYLQLNSLKPEDTAVYYCRRFTSSPKLALGEYDYWGQGTQVTVSS
  polyreactivity (PSR sort gate): low polyreactivity

## QVQLVESGGGLVQAGGSLRLCCAASGFTFPYNGMGWYRQAPGKERELVASISWSGASTYYADSVKGRFTISRDNAKNTVYLQMNSLKPEDTAVYYCAADPGYYSWGCSQDDYWGQGTQVTVSS
  polyreactivity (PSR sort gate): low polyreactivity

## QVQLVESGAGLVQAPGSLRLSCAASGRTFPRNAMGRYRQAPGKERDLVATISLSGGSTYYADSVKGRFTISRDNAKNTVYLQMNSLKPEDSADYYCARTRNPWPTSFDYWGQGTQVTVSS
  polyreactivity (PSR sort gate): low polyreactivity

## QVQLVESGGGLVQAGGSLRLSSAASGRIFQGNSMGWYRQAPGKERELVAAITTSGGSTYYADSVKGRFTISRDNAKNTVYLQMNSLKPEDTAVYYCNVDPRKRSYDYWGQGPQVTVSS
  polyreactivity (PSR sort gate): high polyreactivity

## QVQLVESGGGLVQAGGSLRLSCAASGSIFLYNAMGWYRQAPGKERELVADITSAGRTYYADSVKGRFTISRDNAKNTVYLQMNSLKPEDTAVYYCNKDYHYHFSWYGYWGQGTQVTVSS
  polyreactivity (PSR sort gate): low polyreactivity

## QVQLVESGGGLVQAGGSLRLSCAASGSILQTYAMGWYRQAPGKERELVAAITWSVVSTYYADSVKGRFTISRDNAKNTVYLQMNSLKPEDTAVYYCNARSFGDPGNAYDYWGQGTQVTVSS
  polyreactivity (PSR sort gate): high polyreactivity

## QVHLVESGGGLVQAGGSLRLSCAASGSIFGSYAMGWYRQAPGKERELVAAITIADITYYADSVKGRFTISRDNAKNTVNLQMNSLKPEDTAVYYCNAYWGWRDSWYYYWGQGTQVTVSS
  polyreactivity (PSR sort gate): low polyreactivity

## QVQLVESGGGLVQAGGSLRLSCAASGTTFWRYTMGWYRQAPGKERELVAAISTRGGSTTYADSVKGRFTISRDKAKNNVYLQMNSLKPEDTAVYYCNADGYRGYYGRNKSKYDYWGQGTQVTVSS
  polyreactivity (PSR sort gate): high polyreactivity

## QVQLVESGGRLVQAGGSLRLSCAASGRIFNYYDMGWYSQAPGKERELVAAINYSGGSTYYADSVKGRFTISRDNAKNTVSLQMNSLKAEDTAVYYCAADGYYYYCYGTTDQDDYWGLGTQVTVSS
  polyreactivity (PSR sort gate): low polyreactivity

## QVQLVESGGGLVQAGGSLRLSCPASGSIFSAYAMGWYRQAPGNEREFVAAITRRGGNTYYADSVKGRFTISRDNAKNTVYLQMNSLKPEDTAVYYCAAIRRQKGLWDYYYWGQGTQVTVSS
  polyreactivity (PSR sort gate): low polyreactivity

## QVQLVESGGGLVQAGGSLRLSCAASGSISQPYAMGGYRQAPGKERELVAAIRWSGGSTYYADSVKGRFTISRDNAKNTVYLEMNCLNPEDTAVYYCNKTTYYPSDYVYWGQGTQVTVSS
  polyreactivity (PSR sort gate): low polyreactivity

## QVQLVESGGGLVQAGGRLRLSCAASGSIFGANTMVWYRQAPGKERELVAAISSGGNTYYADSVKGRFTISRDNAKNTVYLQMNSLKPEDTAVYYCNAQTRYRYQYGYLGGTGYNYWGQGTQVTVSS
  polyreactivity (PSR sort gate): low polyreactivity

— the nanobody polyreactivity screen of Harvey et al. (2022)
